{
  "source": "paper PMC3064781",
  "about": "(Nucleic Acids Research, 2010)",
  "molecular_target": "the molecule itself",
  "assay": "crystal structure",
  "data": [
    {"protein": "Nep1 from Archaeoglobus fulgidus (enzyme) MGSAFVFLEASLELIPQKIRGHPAVRADAIRRGKRPEKILLDDSKHHTAMKSLEFREKRGRPDIVHQCLLLLLDSPLRDFEVYVHTLNGEIIWVNRETRLPRNYNRFVGLMEKLFEERRITAGDTTLIEFKDVGLRDIVRGRDVLLFREKGGRFEFSELLDGDVAVCIGAFPHGDFFEETLRELGEFKEVSLGTESYTSLYVTSRVLCEYERVRAHKVG", "values": [
      {"measurement": "binding result", "result": "binds"}
    ]}
  ]
}
